Assay in all cases: high-throughput RNA pulldown from lysate on Ni-NTA beads; HRP: 50 mM Tris pH 8, 150 mM NaCl, 1 mM beta-mercaptoethanol, 50 ug/ml BSA, 3 ug/ml yeast RNA, 0.5% heparin; ITC and FP: Tris pH 8, 200 mM KCl, 5% glycerol; MST: 50 mM Tris pH 8, 200 mM NaCl, 1 mM DTT, BSA, heparin, 0.05% Tween 20
Conditions in all cases: tags: N-terminal His-eGFP

In series [1] the target is T1, GFP-9S library array, motif 4 ND N98S;D124Q (synthetic construct, N98S;D124Q).
T1 chain: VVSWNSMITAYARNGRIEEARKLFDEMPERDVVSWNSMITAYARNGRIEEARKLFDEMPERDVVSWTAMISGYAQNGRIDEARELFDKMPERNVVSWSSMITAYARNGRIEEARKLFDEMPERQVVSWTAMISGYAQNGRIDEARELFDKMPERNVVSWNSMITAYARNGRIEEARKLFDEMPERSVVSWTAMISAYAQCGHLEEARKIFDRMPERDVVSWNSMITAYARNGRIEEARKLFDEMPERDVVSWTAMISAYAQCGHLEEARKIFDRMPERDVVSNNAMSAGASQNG

Series [2] concerns the target T2, GFP-9S library array, motif 4 ND N98Y;D124Q (synthetic construct, N98Y;D124Q).
T2 chain: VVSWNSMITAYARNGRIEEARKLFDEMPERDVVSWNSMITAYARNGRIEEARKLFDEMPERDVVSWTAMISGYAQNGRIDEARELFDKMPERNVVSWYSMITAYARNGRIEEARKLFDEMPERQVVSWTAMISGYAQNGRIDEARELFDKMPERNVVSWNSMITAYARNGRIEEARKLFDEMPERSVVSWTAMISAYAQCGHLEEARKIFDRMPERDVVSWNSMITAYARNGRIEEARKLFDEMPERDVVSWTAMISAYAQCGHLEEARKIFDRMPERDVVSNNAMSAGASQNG

Series [3] has as its target T3, GFP-9S library array, motif 4 ND N98R;D124G (synthetic construct, N98R;D124G).
T3 chain: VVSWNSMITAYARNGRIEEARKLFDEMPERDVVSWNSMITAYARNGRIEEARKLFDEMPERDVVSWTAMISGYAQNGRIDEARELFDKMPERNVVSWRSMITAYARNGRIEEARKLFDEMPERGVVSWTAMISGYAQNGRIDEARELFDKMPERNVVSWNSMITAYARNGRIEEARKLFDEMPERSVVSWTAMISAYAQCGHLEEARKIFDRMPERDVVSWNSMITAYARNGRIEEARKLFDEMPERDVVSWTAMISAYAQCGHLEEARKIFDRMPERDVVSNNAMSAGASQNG

The target of series [4] is T4, GFP-9S library array, motif 4 ND N98P;D124I (synthetic construct, N98P;D124I).
T4 chain: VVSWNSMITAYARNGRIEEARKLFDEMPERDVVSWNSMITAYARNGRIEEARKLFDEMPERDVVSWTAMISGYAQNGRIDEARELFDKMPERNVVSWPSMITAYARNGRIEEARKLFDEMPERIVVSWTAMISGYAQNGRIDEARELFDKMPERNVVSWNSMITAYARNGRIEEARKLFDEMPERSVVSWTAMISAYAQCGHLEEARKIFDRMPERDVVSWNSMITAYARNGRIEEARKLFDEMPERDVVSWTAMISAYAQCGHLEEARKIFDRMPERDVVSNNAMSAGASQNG

The target of series [5] is T5, GFP-9S library array, motif 4 ND N98I;D124T (synthetic construct, N98I;D124T).
T5 chain: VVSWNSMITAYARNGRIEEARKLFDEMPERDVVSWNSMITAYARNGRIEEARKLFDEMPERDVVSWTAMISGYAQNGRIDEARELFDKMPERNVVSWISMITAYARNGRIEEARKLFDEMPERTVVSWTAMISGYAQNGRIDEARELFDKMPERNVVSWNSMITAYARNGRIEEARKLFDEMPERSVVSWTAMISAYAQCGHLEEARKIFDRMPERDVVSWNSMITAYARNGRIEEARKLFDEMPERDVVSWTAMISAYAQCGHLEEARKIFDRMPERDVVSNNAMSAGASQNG

By Kd is commonly meant the constant that tells how readily two partners part at equilibrium. Lower therefore signals higher affinity. AUUACACGUGA (ssRNA) [Cy5-rpoA]: the Kd in series [1] (label: 5' Cy5) came out at 95.2 nM; in series [2] (label: 5' Cy5), 39.5 nM; in series [3] (label: 5' Cy5), 74.7 nM; in series [4] (label: 5' Cy5), 109 nM; in series [5] (label: 5' Cy5), 141 nM.

As to AUUAGACGUGA (ssRNA) [Cy5-rpoA-G], the Kd in series [1] (label: 5' Cy5) is 39.2 nM; in series [2] (label: 5' Cy5), 49.8 nM; in series [3] (label: 5' Cy5) it was 102 nM; in series [4] (label: 5' Cy5), 127 nM; in series [5] (label: 5' Cy5), 145 nM.

On to AUUAUACGUGA (ssRNA) [IR-rpoA-U], for which the Kd was determined as 179 nM in series [1] (label: 5' IRDye 800CW); 103 nM in series [2] (label: 5' IRDye 800CW); 97.3 nM in series [3] (label: 5' IRDye 800CW); 187 nM in series [4] (label: 5' IRDye 800CW); 59.1 nM in series [5] (label: 5' IRDye 800CW).

Regarding AUUAAACGUGA (ssRNA) [IR-rpoA-A], the Kd in series [1] (label: 5' IRDye 800CW) was determined as 40.3 nM; in series [2] (label: 5' IRDye 800CW), 162 nM; in series [3] (label: 5' IRDye 800CW), 191 nM; in series [4] (label: 5' IRDye 800CW) it was 272 nM; in series [5] (label: 5' IRDye 800CW) it was 158 nM.

The values are drawn from paper PMC8809517, “Cofactor-independent RNA editing by a synthetic S-type PPR protein”.
